Assay results from paper PMC5021990 (Biochemical and biophysical research communications, 2016).

Tests used:
[1] = target: Francisella novicida LpxA (UDP-N-acetylglucosamine acyltransferase), C-terminally His6-tagged (Francisella novicida); assay: SEC
FnLpxA = FnLpxA (Francisella tularensis, UniProt A0Q7Y0); settings: 20 μM R,S-3-hydroxypalmitoyl-ACP, 100 μM [α-32P]UDP-GlcNAc, 40 mM HEPES pH 7.4, 100 mM NaCl, 30 °C; labelled compound

| Molecule | stoichiometry N [1] | TLC radioassay of acyl transfer, PhosphorImager (FnLpxA) |
| --- | --- | --- |
| Francisella novicida LpxA (UDP-N-acetylglucosamine acyltransferase), C-terminally His6-tagged (enzyme) | 3 | – |
| CC(=O)N[C@H]1[C@@H](OP(=O)(O)OP(=O)(O)OC[C@H]2O[C@@H](n3ccc(=O)[nH]c3=O)[C@H](O)[C@@H]2O)O[C@H](CO)[C@@H](O)[C@@H]1O [UDP-GlcNAc] | – | purified FnLpxA transfers a 3-hydroxypalmitoyl group from 3-hydroxypalmitoyl-ACP to the 3-OH of UDP-GlcNAc |
